The series is described as follows: yeast display, Sf9 membrane polyspecificity reagent, FACS + sequencing; frameworks hold sequencing errors. The method, boiled down:
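In a synthetic yeast display library (Saccharomyces cerevisiae BJ5465), nanobody expression was induced with galactose for 36–48 hours. FACS gates were set low and high (top ~1%) using anti-HA fluorescence for expression and streptavidin fluorescence for binding of the Sf9 membrane reagent. Each polyreactivity label is drawn from the gate of origin.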
As for “QVHLVESGRGLVQAGGSLRLSCAASGIIFYDYSMGWYRQAPGKERELVAAISWDGVSSYYADSVKGRFTISRDNAKNTVYLQMNSLKPEATAVYYCAARAVTDDDYEFDDWGQGTQVTVSS”, the “polyreactivity (PSR sort gate)” value was “low polyreactivity”.
In the case of “QVQLVESGGGLVQAGGSLRLSCAASGLIFADYTMGWYRQAPGKERELVAVITDGDSTYYADSVKGRFTISLDNAKNTVYLQMNTLKPEDTAVSYCAAESAGSFLDYYWAYGYWGQGTQVTVSS”, the “polyreactivity (PSR sort gate)” value is “low polyreactivity”.
Regarding “QVQLVESGGGLVQAGGSLRLSCAASGRIFTPYAMGWYRQAPGKERELVAAISSSGGSTYYADSVKGRFTISRDNAKNTVYLQMNSLKPEDTAVYYCAAVHYRHVRYDYWGQATQVTVSS”, the “polyreactivity (PSR sort gate)” value is listed as “high polyreactivity”.
As for “QVQLVESGGGLVQAGGSLRLSCAASGRIFNGNAMGWYRQAPGKERELVAAISVSGGSTYYADSVKGRFTISRDNAKNTVYLQMNSLKPEDTAVYYCAARTSSYSFPYAYNYWGQGTQVTVSS”, the “polyreactivity (PSR sort gate)” value is “high polyreactivity”.
Next, “QVQLVESGGGLVQAGGSLRLSCAASGRIFLQYAMGWYRQAPGKERELVAGISLRGGSTYYADSVKGRFTISRDNAKNTVYLQMNSLKPEDTAVYYCAADVIVTVETNTSGPSFTEYDYWGQGTQVTVSS”: “low polyreactivity”; “QVKLVESGGGLVQAGGSLRLSCAASGSIFYTYAMGWYRPAPGKERELVAAISSGGSTDYADSVKGRFTISRDNAKNTVYLQMNSLKPEDTAVYYCAAVAVELASEYDYWGQGTQVTVSS”: “low polyreactivity”; “QDQLVESGGGLVQAGGSLRLSCAASGSTFSGYGMGWYRQAPGKERELVAAITSSGGRTYYADSVKGRFTISRDNAKNTVYLQMNSLKPEDTAVYYCAALYYHEYDYWGQGTQVTVSS”: “low polyreactivity”.
Regarding “QVQLVESGGGLVQAGGSLSLSCAASGRIFGRNAMGWYRQAPGKERELVAAISSSGGTYYADSVKGRFTISRDNAKNTVYLQMISLKPEDTAVYYCNDRVRTQQRWVDYWGQGTQVTVSS”, the “polyreactivity (PSR sort gate)” value was “high polyreactivity”.
For “QVQLVESGGGLVQAGGSLRLSCAASGFIFGTYAMGWYRQAPGKERELVAAISRSGGSTSYADSVKGRFTISRDNAKNTVYLQMNSLKPEDTAVYYCNKRLLRFPYWGYDYWGQGTQVTVSS”, the “polyreactivity (PSR sort gate)” value is “high polyreactivity”.
On to “QVQLVESGGGLVQAGGSLRLSCAASGRTLAHYTMGWYRQAPGKERELVAAITFSGGRTYYADSVKGRFTISRDNAKNTVYLQMNSQKPEDTAVYYCAAPGRWYYRGDDYWGQGTQVTVSS”, for which the “polyreactivity (PSR sort gate)” value is “low polyreactivity”.
For the sequence “QVQLVESVGGLVQAGGSLRLTCAASGSTFWLNDMGWYRQATGKERELVAAISFSGASTYYADSVKGRFTISRDNAKNTVYLQMNILKPEDTAVYYCNAGWGRAEFLSEAVFDSRMYYWGQGTQVTVSS”, the “polyreactivity (PSR sort gate)” value is recorded as “low polyreactivity”.
Take “QVQLVESGGGLVQAGGSLRLSCAASGIIFWGNAMGWYRQAPGKERELVATITGRGGSTYYADSVKGRFTISRDNAKNTVYLQMNSLKPEDTAVYYCAASGGRPIFFYDVWGGIVRHDYWGQGTQVTVSS”: the “polyreactivity (PSR sort gate)” value is “low polyreactivity”.
As for “QVQHVESGGGLVQAGGSLRLSCAASGRTFRLYAMGRYRMAPGKERELVAAITRGGRTNYADSVKGRFTISRDNAKNTVYLQMNSLKPEDTAVYYCAVAGFDRGQYVRYYYWGQGTQVTVSS”, the “polyreactivity (PSR sort gate)” value was “low polyreactivity”.
Regarding “QVQLVESGGGLVQAGGSLRLSCAASGSTFNRYAMGWYRQAPGKARELVATNNSGTSTNYADSVKGRFTISRDNAKNTVYLQKNSLKPEDTAVYYCAKTFRRSVGGYGYEYWGQGTQVTVSS”, the “polyreactivity (PSR sort gate)” value is “low polyreactivity”.
Consider “QVQLVDSGGGLDQAGGSLRLSCAASGFTFGDNAMGCYRQAPGKERELVARITGDGSTYYADSVKGRFTISRDNAKNTVYLQMNSLKPEDTAFFYCAADYSPRYTQIEYGYWGQGTQVTVSS”, for which the “polyreactivity (PSR sort gate)” value is listed as “low polyreactivity”.
For “QVQLVESGGGLVQAGGSLRLSCAASGSTSLYYAMGWYRPAPGKEREFVAAITWSGGSTYYADSVKGRFTISRDNAKNTVYLQMNSLKPEDTAVYYCAARSYGYSAGYYWGQGTQVTVSS”, the “polyreactivity (PSR sort gate)” value is listed as “high polyreactivity”.
Regarding “QVQLVESGGGLVQAGGSLRLSCAASGSISGYNAMGWYRQAPGQERELVAAIYRSDGTDYADSVKGRFTISRDNAKNTVYLQMNSLNPEDTAVYYCNADKWSVVGYVRGFYRDDYWGQGTQVTVSS”, the “polyreactivity (PSR sort gate)” value is listed as “low polyreactivity”.
With “QVQLVESGGGLVQAGGSLRLSCAASGLIFPKNAMGWYRQAPGKERELVAAISSSDSSTYADSVKGRFTISRDNAKNTVYLQMNSLKPEDTAVYYCAAASYNWLDWVTREYWGQGTQVTVSS”, the “polyreactivity (PSR sort gate)” value is “low polyreactivity”.
Next, “QVQLVESGGGLVQAGGSLRLSCAGSGIIFAWYAMGWYRQAPGKERELVAAITSGGGSTYYADSVKGRFTISRDNAKNTVYLQMNSLKPEDTAVYYCAADYQTIGWGYDYWGQGTQVTVSS”: “low polyreactivity”; “QVQLVESGGALVQAGGSLRLSSAASGITFSRYAMGWYRQAPGKERELVARISSSGGSTNYADSVKGRFTISRDNAKNTVYLQMNSLKPEDTAVYYCAGATRGKVARRVTFDYWGQGTQVTVSS”: “high polyreactivity”.
As for “QVQLVESGGGLVQAGGSLRLSCDASGSIFDLNAMGWYRQAPGKERELVAAISSGGGTNYADSVKGRFTISRDNAKNTVYLQMYSLKPEDTAVYYCAVGSTRDGVYLGQGTQVTVSS”, the “polyreactivity (PSR sort gate)” value is recorded as “high polyreactivity”.
Consider “QVQLVESGGGLVQAGGSLRLSCAASGRIYTRYMGWYRQAPGKEREMVATINWSGGSTYYADSVKGRFTISRDNAKNTVYLQMNSLKPEDTAVYYCNARNVDFYYVQYNGAKIFDYWGQGTQVTVSS”, for which the “polyreactivity (PSR sort gate)” value is reported as “low polyreactivity”.
Then “QVQLVESGGGIVQAGGSLRLSCAASGFTFYYKAMGWYRQAPGKERELVAAISRGGRTNYADSVKGRFTISRDNAKNTVYLEMNSLTPADTAVYYCAADRYNGVYAVYYYGYDYWGQGTKVTVSS”, with “high polyreactivity”.
As to “QVQLVESGGGLVQAGGSRRLSCAASGSIFSQYAMGWYRQAPGKEREFVAAINWSGGRTRYADSVKGRFTISRDNAKNTVYLQMNSLKPEDTAVYYCAKVYSLYSYSGRYDYWGQGTQVTVSS”, the “polyreactivity (PSR sort gate)” value is “high polyreactivity”.
Regarding “QVQLVESGGGLVQAGGSLRLSCAASGLTFVYYAMGWYRQAPGKERELVAAISGVGSTHYADSVKGRFTISRDNANNTVYLQMNSLKPEDTAVYYCNADYAYFWGWYGDWGQGTQVTVSS”, the “polyreactivity (PSR sort gate)” value is recorded as “low polyreactivity”.
Turning to “QVQLVESGGGLVQAGGSLRLSCAASGSTGGYAMGWYRQAPGKERELVARISYSGGSTYYADSVKGRFTISRDNAKNTVYLQMNSLKPEDTAVYYCAARILYRYYYWGQGTQVTVSS”, the “polyreactivity (PSR sort gate)” value was “high polyreactivity”.
On to “QVQLVESGGGLVQAGGSLRLSCAASGSTFTYYAMGWYRQAPGKERELVAAITSGGSTYYADSVKGRFTISRDNAKNTVYLQMNSLKPEDTAVYYCNRGSWRYSTMEYWGQGTQVTVSS”, for which the “polyreactivity (PSR sort gate)” value is “high polyreactivity”.
Then “QVQLVESGGGLVQAGGSLRLSCAASGFTFGKYAMGWYRQAPGKERELVAAITWSGGRTYYADSVKGRFTISRDNAKNTVYLQMNSLKPEDTAVYYCNKVYLYSSLARPYDYWGQGTQVTVSS”, with “high polyreactivity”; and “QVQLVESGGGLVQAGGSLRLSCAASGIIFYQNTMGWYRQAPGKERELVATITKRGGSTYYADSVKGRFTISRDNAKNTVYLQMNSLKPEDTAVYYCNAAKYAASYIGYGYWGQGTQVTVSS”, with “high polyreactivity”; and “QVQLVESGGGLVQAGGSLRISCAASGRTFTRYAMGWYRQAPGKERELVASITTGGRTYYADSVKGRFTISRDNAKNTVYLQMNSLKPEDTAVYYCNADRVYAWYRTYDYWGQGTQVTVSS”, with “high polyreactivity”.
As for “QVQLVESGGGLVQAGGSLRLSCAASGITFTQYTMGWYRQARGKQRELVAAISSSGGRTYYADSVKGRYTISRDNAKKTVYLQMNSLKPEDTAVYYCAAAWRRTFDYCGQGTQVTVSS”, the “polyreactivity (PSR sort gate)” value is reported as “high polyreactivity”.
Then “QVQLVESGGGLVQAGGSLRLSCAASGSTFPDNAMGWYRQAPGKERELVAAISFSSGSTYYADSVKGRFTISRDNAKNTVYLQMNSLKPEDTAVYYCAADSYPAYLGFVGFDYWGQGTQVTVSS”, with “low polyreactivity”.
Consider “QVQLVESGGGLVQAGGSLRLSCAASGSIFHWYAMGWYRQAPGKERELVAAINWSGGSTYYADSVKGRFTISRDNAKNTVYLQMNSLKPEDTAVYYCNKAYVSRYDYWGQGTQVTVSS”, for which the “polyreactivity (PSR sort gate)” value is listed as “high polyreactivity”.
As for “QVQIVESGGGLVQAGGSLRLSCAASGRTFAWYAMGWYRQAPGKERELVAAITWSGGSTYYADSVKGRFTISRDNAKNTVYLQMNSLKPEETAVYYCAARTVVGWYSRYCYWGQGTQVTVSS”, the “polyreactivity (PSR sort gate)” value is “low polyreactivity”.
As to “QVQLVESGGGLVQAGGSIRLSCAASGVIFYGNSIGWYRQAPGKERELVAAISRRGGRTYYADSVKGRFTNSRDNAKITVYLQMNSLKPEDTAVYYCAADVIYSGDYWGQGTQVTVSS”, the “polyreactivity (PSR sort gate)” value is “high polyreactivity”.
Consider “QVQLVESGGGLVHAGGSLRLSCAASGRIFYYYTKGWYRQEPGKERELVAAISSGGSTNYADSVKGRFTISRDNAKNTVYLQMNSLKPEHTAVYYWARYGGYWSLKYDYWGQGTQVTVSS”, for which the “polyreactivity (PSR sort gate)” value was “high polyreactivity”.
“QVQLEDSGGGLDQAGVSLRLSCAASGSTFLLYAMVGYRQAPGKERELVAAISRSSTSTYYADSVKGRFTISRDNAKNTVYLQMNSLKPEDTAVYYCAAVVTVQYSQPYDHWGQGTQVTVSS”: the “polyreactivity (PSR sort gate)” value is on record as “high polyreactivity”.
Take “QVQLVESGGGLVQAGGSLLLSCAASGSTFGANAMGWYRQAPGKEREFVAAISRSGVRTYYADSVKGRFTISRDNAKNTVYLQMNSLKPEDTAVYYCAADGYWWTYTRYDYWGQGTQVTVSS”: the “polyreactivity (PSR sort gate)” value is recorded as “low polyreactivity”.
Then “QVQLVESGGGLVQAGGSLRLSCAASGRTFAGYAMGWYRQAPGKERELVAAISTRGGSTYYADSVKGRFTISRDNAKNTVYLQMNSLKPEDTAVYYCAATKPKFYQFDYWGQGTQVTVSS”, with “high polyreactivity”; and “QVQLVESGGGLVQAGGSLRLSCAASGSILPLYAMGWYRQAPGKERELVATISNAGSTTYADSVKGRFTISRDNAKNTVYLQMHSLKPEVTAVYYCNAESEWGWVYVGYDYWGQGTQVTVSS”, with “low polyreactivity”; and “QVQLVESGGGLVQAGGSLRLSCAASGHIYVRYAMGWYRQAPGKERELVAAITSGGSTYYADSVKGRFTISRDNAKNTVYLQMNSLKPEDTAVYYCAARKQQYRFTHDYWGQGTQVTVSS”, with “high polyreactivity”.

The values are drawn from the nanobody polyreactivity screen of Harvey et al. (2022).
